Source: patent publication US20160009772A1, “CELL PENETRATING PEPTIDES WHICH BIND IRF5” (priority 2012, published 2016)

B1: Ac-…-NH2 (SEQ ID NO: 8) (peptide)
peptide: Ac-KDLMVQWFKDGGPSSGAPPPS-NH2
B2: FITC-Aha-…-NH2 (SEQ ID NO: 17) (peptide)
peptide: XMIILIISFPKHKDWKVILVK
modifications: N-terminal FITC-Aha (fluorescein isothiocyanate on amino hexanoic acid), C-terminal amide (NH2)
B3: Ac-…-NH2 (SEQ ID NO: 9) (peptide)
peptide: Ac-IRLQISNPDLKDLMVQWFKDGGPSSGAPPPS-NH2
B4: Ac-…-NH2 (SEQ ID NO: 23), control CPP designed not to bind IRF5 (peptide)
peptide: Ac-YLKFIPLKRAIWLIK-NH2
B5: Ac-…-NH2 (SEQ ID NO: 10) (peptide)
peptide: Ac-PFPPLPIGEEAPKDDMVRFFKDLHQYLNVV-NH2
B6: Ac-…-NH2 (SEQ ID NO: 14) (peptide)
peptide: Ac-MIILIISFPKHKDWKVILVK-NH2
B7: FITC-Aha-…-NH2 (SEQ ID NO: 16) (peptide)
peptide: XIRLQISNPYLKFIPLKRAIWLIK
modifications: N-terminal FITC-Aha (fluorescein isothiocyanate on amino hexanoic acid), C-terminal amide (NH2)

What follows are binders tested against IRF5(222-467, S430D), S430D phosphomimetic construct of IRF5 (222-467) (human), Q13568 (assay: not given).
Sequence of IRF5(222-467, S430D), S430D phosphomimetic construct of IRF5 (222-467) (human), Q13568 (Q13568 232-477 S440D limits assumed): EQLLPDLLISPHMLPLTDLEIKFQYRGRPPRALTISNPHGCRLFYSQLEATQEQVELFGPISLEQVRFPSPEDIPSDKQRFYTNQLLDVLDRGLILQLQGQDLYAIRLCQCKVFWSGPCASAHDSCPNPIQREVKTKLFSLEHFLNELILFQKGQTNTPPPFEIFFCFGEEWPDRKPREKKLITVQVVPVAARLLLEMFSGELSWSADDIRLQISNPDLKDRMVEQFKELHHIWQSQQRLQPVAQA

Row | Binder | IC50 [nM]
1 | B1 | 1680

The binders below were run against Wild type IRF5 (222-467) (human) (UniProt Q13568) (assay: TR-FRET IRF5 dimerization inhibition, WT (222-467), peptide titrated).

Row | Binder | IC50 [nM]
2 | B2 | 5300
3 | B3 | 1400
4 | B4 | > 75000
5 | B5 | 350
6 | B6 | 18600
7 | B1 | 790
8 | B7 | 46500
